The target in this assay is UHRF1-mCherry (UniProt Q96T88). Briefly: FRET or BRET; FLIM-FRET in fixed HeLa cells 24 h after co-transfection of TIP60-eGFP WT/mutants (donor) and UHRF1-mCherry (acceptor) 1:1; two-photon excitation at 930 nm; E = 1-(τDA/τD); one-component and two-component analysis of decays.

One substance from publication PMC5740878 can be followed below.

Sequence of TIP60∆CRD-eGFP (Q92993 whole entry): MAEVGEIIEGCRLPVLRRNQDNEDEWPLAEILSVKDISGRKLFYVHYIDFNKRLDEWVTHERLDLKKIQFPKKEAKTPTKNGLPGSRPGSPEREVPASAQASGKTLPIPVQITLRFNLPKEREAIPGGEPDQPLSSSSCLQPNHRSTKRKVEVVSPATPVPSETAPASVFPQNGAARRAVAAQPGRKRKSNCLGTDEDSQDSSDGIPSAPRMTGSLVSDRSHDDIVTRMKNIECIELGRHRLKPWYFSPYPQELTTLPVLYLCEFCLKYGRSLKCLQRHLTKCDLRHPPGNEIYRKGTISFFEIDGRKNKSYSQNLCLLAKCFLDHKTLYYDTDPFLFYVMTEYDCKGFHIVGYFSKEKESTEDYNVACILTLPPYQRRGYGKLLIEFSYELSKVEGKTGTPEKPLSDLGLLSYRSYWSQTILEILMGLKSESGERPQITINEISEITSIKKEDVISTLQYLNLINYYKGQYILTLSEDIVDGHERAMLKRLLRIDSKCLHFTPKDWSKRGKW
Sequence of UHRF1-mCherry (Q96T88 whole entry): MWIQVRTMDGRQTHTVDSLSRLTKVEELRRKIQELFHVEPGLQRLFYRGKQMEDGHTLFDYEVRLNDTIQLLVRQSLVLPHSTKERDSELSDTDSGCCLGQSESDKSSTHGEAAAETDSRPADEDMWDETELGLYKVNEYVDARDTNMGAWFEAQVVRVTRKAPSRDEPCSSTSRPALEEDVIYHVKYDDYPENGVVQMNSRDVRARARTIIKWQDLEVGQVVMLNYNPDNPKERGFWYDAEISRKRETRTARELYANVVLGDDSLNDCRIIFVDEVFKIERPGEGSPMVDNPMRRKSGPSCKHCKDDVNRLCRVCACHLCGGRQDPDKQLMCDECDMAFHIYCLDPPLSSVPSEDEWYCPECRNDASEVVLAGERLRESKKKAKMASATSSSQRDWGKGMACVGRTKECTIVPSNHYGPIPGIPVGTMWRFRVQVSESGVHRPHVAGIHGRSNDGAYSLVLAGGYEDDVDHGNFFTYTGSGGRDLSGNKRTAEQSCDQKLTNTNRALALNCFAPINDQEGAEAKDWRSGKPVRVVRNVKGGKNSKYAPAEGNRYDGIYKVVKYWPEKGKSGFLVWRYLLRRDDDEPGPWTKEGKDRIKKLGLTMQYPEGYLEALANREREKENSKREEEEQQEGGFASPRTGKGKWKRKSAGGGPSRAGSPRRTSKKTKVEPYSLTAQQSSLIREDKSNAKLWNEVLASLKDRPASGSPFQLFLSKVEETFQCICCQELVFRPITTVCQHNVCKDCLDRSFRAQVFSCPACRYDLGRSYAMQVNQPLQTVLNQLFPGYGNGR

In turn, “TIP60∆CRD-eGFP (from UniProt Q92993 1-513) (natural protein)” registered an average FRET of 12.2%; an average FRET of the short lifetime component, two-component model of 43%; a mean short lifetime component (τ1), two-component model of 1.4 ns; a population (α1) of the interacting short lifetime component of 19%.
